From IntAct's records for PubMed 16968782

B1: Nephrin (Homo sapiens), O60500-1 (parent)
chain: MALGTTLRASLLLLGLLTEGLAQLAIPASVPRGFWALPENLTVVEGASVELRCGVSTPGSAVQWAKDGLLLGPDPRIPGFPRYRLEGDPARGEFHLHIEACDLSDDAEYECQVGRSEMGPELVSPRVILSILVPPKLLLLTPEAGTMVTWVAGQEYVVNCVSGDAKPAPDITILLSGQTISDISANVNEGSQQKLFTVEATARVTPRSSDNRQLLVCEASSPALEAPIKASFTVNVLFPPGPPVIEWPGLDEGHVRAGQSLELPCVARGGNPLATLQWLKNGQPVSTAWGTEHTQAVARSVLVMTVRPEDHGAQLSCEAHNSVSAGTQEHGITLQVTFPPSAIIILGSASQTENKNVTLSCVSKSSRPRVLLRWWLGWRQLLPMEETVMDGLHGGHISMSNLTFLARREDNGLTLTCEAFSEAFTKETFKKSLILNVKYPAQKLWIEGPPEGQKLRAGTRVRLVCLAIGGNPEPSLMWYKDSRTVTESRLPQESRRVHLGSVEKSGSTFSRELVLVTGPSDNQAKFTCKAGQLSASTQLAVQFPPTNVTILANASALRPGDALNLTCVSVSSNPPVNLSWDKEGERLEGVAAPPRRAPFKGSAAARSVLLQVSSRDHGQRVTCRAHSAELRETVSSFYRLNVLYRPEFLGEQVLVVTAVEQGEALLPVSVSANPAPEAFNWTFRGYRLSPAGGPRHRILSSGALHLWNVTRADDGLYQLHCQNSEGTAEARLRLDVHYAPTIRALQDPTEVNVGGSVDIVCTVDANPILPGMFNWERLGEDEEDQSLDDMEKISRGPTGRLRIHHAKLAQAGAYQCIVDNGVAPPARRLLRLVVRFAPQVEHPTPLTKVAAAGDSTSSATLHCRARGVPNIVFTWTKNGVPLDLQDPRYTEHTYHQGGVHSSLLTIANVSAAQDYALFTCTATNALGSDQTNIQLVSISRPDPPSGLKVVSLTPHSVGLEWKPGFDGGLPQRFCIRYEALGTPGFHYVDVVPPQATTFTLTGLQPSTRYRVWLLASNALGDSGLADKGTQLPITTPGLHQPSGEPEDQLPTEPPSGPSGLPLLPVLFALGGLLLLSNASCVGGVLWQRRLRRLAEGISEKTEAGSEEDRVRNEYEESQWTGERDTQSSTVSTTEAEPYYRSLRDFSPQLPPTQEEVSYSRGFTGEDEDMAFPGHLYDEVERTYPPSGAWGPLYDEVQMGPWDLHWPEDTYQDPRGIYDQVAGDLDTLEPDSLPFELRGHLV
partner: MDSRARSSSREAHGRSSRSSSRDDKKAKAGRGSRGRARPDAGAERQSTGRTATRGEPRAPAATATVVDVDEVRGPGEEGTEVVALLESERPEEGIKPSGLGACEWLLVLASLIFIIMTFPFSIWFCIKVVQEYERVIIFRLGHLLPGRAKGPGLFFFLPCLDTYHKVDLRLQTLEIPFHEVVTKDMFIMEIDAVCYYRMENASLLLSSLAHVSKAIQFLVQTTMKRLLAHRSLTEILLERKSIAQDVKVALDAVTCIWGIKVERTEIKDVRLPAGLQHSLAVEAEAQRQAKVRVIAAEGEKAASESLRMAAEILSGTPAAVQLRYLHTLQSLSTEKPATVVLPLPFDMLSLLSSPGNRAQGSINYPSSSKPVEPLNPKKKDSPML
B2: Nephrin (Homo sapiens), O60500-1 (parent)
chain: B1 chain

Variants of: B1
Settings: with podo_mouse Nphs2, Q91X05

Row | effect of a mutation on the interaction | Variant
1 | disrupting interaction strength | Y1193F

Variants of: B2
Settings: with arrb2_human ARRB2, P32121
Chain of arrb2_human ARRB2, P32121 (P32121 whole entry): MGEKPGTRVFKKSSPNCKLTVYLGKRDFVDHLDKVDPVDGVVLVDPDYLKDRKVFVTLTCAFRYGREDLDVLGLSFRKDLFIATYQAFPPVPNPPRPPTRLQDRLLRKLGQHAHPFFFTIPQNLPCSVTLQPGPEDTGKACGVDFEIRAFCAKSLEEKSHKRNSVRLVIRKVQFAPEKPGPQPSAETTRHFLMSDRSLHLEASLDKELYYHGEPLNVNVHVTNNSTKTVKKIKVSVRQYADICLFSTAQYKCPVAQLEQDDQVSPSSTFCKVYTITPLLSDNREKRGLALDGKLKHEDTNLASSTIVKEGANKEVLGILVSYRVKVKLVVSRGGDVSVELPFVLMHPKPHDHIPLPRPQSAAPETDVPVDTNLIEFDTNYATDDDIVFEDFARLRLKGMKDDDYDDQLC

Row | effect of a mutation on the interaction | Variant
2 | decreasing interaction strength | Y1193A
